From PMC4137731, “C-Terminal Domain Swapping of SSB Changes the Size of the ssDNA Binding Site”

B1: dT15 (ssDNA)
DNA: TTTTTTTTTTTTTTT
B2: dT20 (ssDNA)
DNA: TTTTTTTTTTTTTTTTTTTT
B3: dT40 (ssDNA)
DNA: TTTTTTTTTTTTTTTTTTTTTTTTTTTTTTTTTTTTTTTT
B4: dT45 (ssDNA)
DNA: TTTTTTTTTTTTTTTTTTTTTTTTTTTTTTTTTTTTTTTTTTTTT
B5: dT25 (ssDNA)
DNA: TTTTTTTTTTTTTTTTTTTTTTTTT
B6: dT55 (ssDNA)
DNA: TTTTTTTTTTTTTTTTTTTTTTTTTTTTTTTTTTTTTTTTTTTTTTTTTTTTTTT
B7: dT60 (ssDNA)
DNA: TTTTTTTTTTTTTTTTTTTTTTTTTTTTTTTTTTTTTTTTTTTTTTTTTTTTTTTTTTTT

Key:
Settings in all cases: protein: recombinant; tags: none (untagged); chain copies: 4; label: 5' 32P
KpSSBnStSSBc [1] = target: T1, KpSSBnStSSBc (Klebsiella pneumoniae subsp. pneumoniae …, UniProt A6TGW7 1-91+P0A2F6:92-176, internal_change); test: EMSA; monomer conc.; 1 complex; 20 mM Tris-HCl pH 8.0, 100 mM NaCl, 25°C 30 min, 1.7 nM DNA, protein 0-5000 nM; native 8% PAGE in TBE at 4°C
KpSSBnPaSSBc [2] = target: T2, KpSSBnPaSSBc (Klebsiella pneumoniae subsp. pneumoniae …, UniProt A6TGW7 1-91+P40947:91-165, internal_change); test: EMSA; no complex observed up to 5000 nM; 20 mM Tris-HCl pH 8.0, 100 mM NaCl, 25°C 30 min, 1.7 nM DNA, protein 0-5000 nM; native 8% PAGE in TBE at 4°C
KpSSBnPaSSBc [3] = target: T2, KpSSBnPaSSBc; test: EMSA; monomer conc.; 1 complex; 20 mM Tris-HCl pH 8.0, 100 mM NaCl, 25°C 30 min, 1.7 nM DNA, protein 0-5000 nM; native 8% PAGE in TBE at 4°C
KpSSBnStSSBc [4] = target: T1, KpSSBnStSSBc; test: EMSA; monomer conc.; 2 complexes; 20 mM Tris-HCl pH 8.0, 100 mM NaCl, 25°C 30 min, 1.7 nM DNA, protein 0-5000 nM; native 8% PAGE in TBE at 4°C
KpSSBnPaSSBc [5] = target: T2, KpSSBnPaSSBc; test: as above

Row | Binder | apparent K (half saturation) (KpSSBnStSSBc [1]) [nM] | apparent K (half saturation) (KpSSBnPaSSBc [3]) [nM] | further results
1 | B1 | 260 ± 60 | – | –
2 | B2 | 110 ± 20 | – | binding result (KpSSBnPaSSBc [2]): no binding
3 | B3 | 120 ± 20 | 220 ± 30 | –
4 | B4 | – | – | apparent K (half saturation) (KpSSBnStSSBc [4]): 160 ± 20 nM
5 | B5 | – | 390 ± 60 | –
6 | B6 | – | 230 ± 30 | –
7 | B7 | – | – | apparent K (half saturation) (KpSSBnPaSSBc [5]): 230 ± 30 nM
